Values quoted from earlier work, collected in PMC9797105.
pKd: −log10 of the molar value.

How the values were obtained:
[1] = target: TRP channel PBM (Drosophila melanogaster) (UniProt P19334)
[2] = target: TARP γ-8 PBM (UniProt Q8WXS5)
Chain of UniProt Q8WXS5 (Q8WXS5 whole entry, looked up): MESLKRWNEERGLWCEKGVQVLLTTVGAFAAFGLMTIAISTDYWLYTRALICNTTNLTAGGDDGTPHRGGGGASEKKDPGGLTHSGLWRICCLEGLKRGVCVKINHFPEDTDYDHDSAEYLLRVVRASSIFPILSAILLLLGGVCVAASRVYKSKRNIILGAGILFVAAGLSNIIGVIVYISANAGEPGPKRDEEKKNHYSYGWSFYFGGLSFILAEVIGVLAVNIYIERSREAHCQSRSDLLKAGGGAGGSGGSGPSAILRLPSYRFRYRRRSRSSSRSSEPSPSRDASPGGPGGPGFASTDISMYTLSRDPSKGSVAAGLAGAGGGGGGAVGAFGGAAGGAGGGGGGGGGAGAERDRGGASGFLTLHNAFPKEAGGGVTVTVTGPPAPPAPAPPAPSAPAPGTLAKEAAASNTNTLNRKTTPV

Q: With INAD PDZ3 (from UniProt Q24008) as the substance, how does the pKd [1] read?
A: 6.89

Q: With PSD-95 PDZ2 (from UniProt P78352) as the substance, how does the pKd [2] read?
A: 4.40
